# In patent US20200095333A1 (published 2020):
# B1: h2B6-h3G8 CBD (covalent bispecific diabody, constructs 1 and 2) (bispecific antibody)
# chain 1: EIVLTQSPDFQSVTPKEKVTFTCRTSQSIGTNIHWYQQKPDQSPKLLIKEVSESISGVPSRFSGSGSGTDFTLTINSLEAEDAATYYCQQSNTWPFTFGGGTKVEIKGGGSGGGGQVTLRESGPALVKPTQTLTLTCTFSGFSLSTSGMGVGWIRQPPGKALEWLAHIWWDDDKRYNPALKSRLTISKDTSKNQVVLTMTNMDPVDTATYYCAQINPAWFAYWGQGTLVTVSSLGGC
# chain 2: DIVMTQSPDSLAVSLGERATINCKASQSVDFDGDSFMNWYQQKPGQPPKLLIYTTSNLESGVPDRFSGSGSGTDFTLTISSLQAEDVAVYYCQQSNEDPYTFGQGTKLEIKGGGSGGGGQVQLVQSGAEVKKPGASVKVSCKASGYTFTNYWIHWVRQAPGQGLEWIGVIDPSDTYPNYNKKFKGRVTMTVVVSTSTAYMELRSLRSDDTAVYYCARNGDSDYYSGMDYWGQGTTVTVSSLGGC
# notes: also called h2B6-h3G8 diabody; h2B6-h3G8 covalent heterodimer
# Key:
# [1] = target: T1, sCD32B (soluble CD32B, FcgammaRIIB) (human, UniProt P31994 43-217); assay: SPR (BIAcore), receptor immobilised, diabody 6.25-200 nM
# T1 construct: extracellular domain; also called soluble CD32B ectodomain
# T1 sequence: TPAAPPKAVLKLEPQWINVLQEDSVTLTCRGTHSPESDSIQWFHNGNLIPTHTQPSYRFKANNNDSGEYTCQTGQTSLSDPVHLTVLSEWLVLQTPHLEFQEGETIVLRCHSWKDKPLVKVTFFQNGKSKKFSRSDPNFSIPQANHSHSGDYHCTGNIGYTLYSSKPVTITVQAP
# [2] = target: T2, sCD16A (soluble CD16A, FcgammaRIIIA) (human, UniProt P08637 17-208); assay: as above
# T2 construct: extracellular domain; given only as soluble; used immobilised (SPR), coated, or biotin/HRP-labelled as probe (ELISA); also called CD16 antigen; sCD16A-Biotin
# T2 sequence (P08637 17-208): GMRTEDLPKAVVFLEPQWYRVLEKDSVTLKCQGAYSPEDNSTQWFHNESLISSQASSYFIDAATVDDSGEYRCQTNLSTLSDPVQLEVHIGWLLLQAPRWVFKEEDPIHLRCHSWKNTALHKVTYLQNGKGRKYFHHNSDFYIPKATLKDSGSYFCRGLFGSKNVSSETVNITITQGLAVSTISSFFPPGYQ
# [3] = target: T3, sCD32A (soluble CD32A, negative control receptor) (UniProt P12318 34-217); assay: SPR (BIAcore), receptor immobilised
# T3 construct: extracellular domain
# T3 sequence: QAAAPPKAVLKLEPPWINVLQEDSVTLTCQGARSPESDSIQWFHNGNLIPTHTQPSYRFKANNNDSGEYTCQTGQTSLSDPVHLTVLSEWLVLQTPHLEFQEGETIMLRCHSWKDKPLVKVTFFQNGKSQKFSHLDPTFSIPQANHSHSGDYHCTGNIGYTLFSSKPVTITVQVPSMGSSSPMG
binder,measurement,setting,value
B1,Kd,[1],15 nM
same,Kd,[2],22.7 nM
same,binding result,[3],no binding (tested: 100 nM)
